# Molecular target: Ebola virus nucleoprotein, recombinant construct consisting of the C-terminal portion of NP (Ebola virus (EBOV; formerly the Zaire ebolavirus))
# Test: SPR; ProteOn XPR36; […] (10 mM acetate pH 5.0); […]; Langmuir model
# Sequence of Ebola virus nucleoprotein, recombinant construct consisting of the C-terminal portion of NP (Ebola virus (EBOV; formerly the Zaire ebolavirus)) (P18272 641-739 limits assumed): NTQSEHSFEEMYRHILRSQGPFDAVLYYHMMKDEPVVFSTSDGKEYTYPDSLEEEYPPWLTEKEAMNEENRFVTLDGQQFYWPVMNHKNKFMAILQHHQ
row,Binder,Kd [nM]
1,DSTL096 (VHH) VHH: RVDQTPRSVTKETGESLTINCVLRDASYAVGSTCWYRKKSGSTNEESISKGGRYVETVNSGSKSFSLRINDLTVEDGGTYRCGVSTYNWCGVRGLGCVHGACGDGTAVTVN,0.39
2,SK to RI (VHH) VHH: TRVDQTPRTATKETGESLTINCVLRDASYAVGSTCWFRKNPGTTDEERISIGGRYVESVNKGAKSFSLRIKDLTVADSATYYCGVSTYNWCGVRGLGCVHGACGDGTALTVK,22
3,SP15-096-123 (VHH) VHH: TRVDQTPRTATKETGESLTINCVLRDASYAVGSTCWFRKNPGTTDEESISKGGRYVESVNKGAKSFSLRIKDLTVADSATYYCGVSTYNWCGVRGLGCVHGACGDGTALTVK,0.37
4,SP15-096-13 (VHH) VHH: TRVDQTPRTATKETGESLTINCVLRDASYAVGSTCWFRKNPGTTDWERISIGGRYVESVNKGAKSFSLRIKDLTVADSATYYCGVSTYNWCGVRGLGCVHGACGDGTALTVK,27
5,E to W (VHH) VHH: TRVDQTPRTATKETGESLTINCVLRDASYAVGSTCWFRKNPGTTDWESISKGGRYVESVNKGAKSFSLRIKDLTVADSATYYCGVSTYNWCGVRGLGCVHGACGDGTALTVK,0.34
6,S to R (VHH) VHH: TRVDQTPRTATKETGESLTINCVLRDASYAVGSTCWFRKNPGTTDEERISKGGRYVESVNKGAKSFSLRIKDLTVADSATYYCGVSTYNWCGVRGLGCVHGACGDGTALTVK,2.3
7,K to I (VHH) VHH: TRVDQTPRTATKETGESLTINCVLRDASYAVGSTCWFRKNPGTTDEESISIGGRYVESVNKGAKSFSLRIKDLTVADSATYYCGVSTYNWCGVRGLGCVHGACGDGTALTVK,2.2
8,EK to WI (VHH) VHH: TRVDQTPRTATKETGESLTINCVLRDASYAVGSTCWFRKNPGTTDWESISIGGRYVESVNKGAKSFSLRIKDLTVADSATYYCGVSTYNWCGVRGLGCVHGACGDGTALTVK,3.6
9,ES to WR (VHH) VHH: TRVDQTPRTATKETGESLTINCVLRDASYAVGSTCWFRKNPGTTDWERISKGGRYVESVNKGAKSFSLRIKDLTVADSATYYCGVSTYNWCGVRGLGCVHGACGDGTALTVK,12
